Experimental data reported in paper PMC10443974.

Biological target: unmodified, wild-type (WT) human FcRn (neonatal Fc receptor) (human) (UniProt P55899)
Assay: FcRn affinity chromatography with pH monitor

Substance	FcRn dissociation pH (mean)
NIST mAb (reference material RM8671) (antibody)	7.22 pH
adalimumab (antibody)	7.39 pH
cusatuzumab (antibody)	7.12 pH
durvalumab (antibody)	7.28 pH
margetuximab (antibody)	7.34 pH

Next, values leading:

FcRn dissociation pH (mean)	Substance
7.81 pH	briakinumab (antibody)
7.25 pH	cetuximab (antibody)
7.43 pH	rituximab (antibody)
